Entries after “also recorded” stand apart in the source; their conditions may differ. The star is where a group is joined. Biotin = O=C1N[C@H]2[C@H](CS[C@H]2CCCCC(=O)*)N1
T1: elastin (Bos taurus, UniProt P04985)
T1 construct: purchased Sigma-Aldrich
T1 sequence (P04985 27-747): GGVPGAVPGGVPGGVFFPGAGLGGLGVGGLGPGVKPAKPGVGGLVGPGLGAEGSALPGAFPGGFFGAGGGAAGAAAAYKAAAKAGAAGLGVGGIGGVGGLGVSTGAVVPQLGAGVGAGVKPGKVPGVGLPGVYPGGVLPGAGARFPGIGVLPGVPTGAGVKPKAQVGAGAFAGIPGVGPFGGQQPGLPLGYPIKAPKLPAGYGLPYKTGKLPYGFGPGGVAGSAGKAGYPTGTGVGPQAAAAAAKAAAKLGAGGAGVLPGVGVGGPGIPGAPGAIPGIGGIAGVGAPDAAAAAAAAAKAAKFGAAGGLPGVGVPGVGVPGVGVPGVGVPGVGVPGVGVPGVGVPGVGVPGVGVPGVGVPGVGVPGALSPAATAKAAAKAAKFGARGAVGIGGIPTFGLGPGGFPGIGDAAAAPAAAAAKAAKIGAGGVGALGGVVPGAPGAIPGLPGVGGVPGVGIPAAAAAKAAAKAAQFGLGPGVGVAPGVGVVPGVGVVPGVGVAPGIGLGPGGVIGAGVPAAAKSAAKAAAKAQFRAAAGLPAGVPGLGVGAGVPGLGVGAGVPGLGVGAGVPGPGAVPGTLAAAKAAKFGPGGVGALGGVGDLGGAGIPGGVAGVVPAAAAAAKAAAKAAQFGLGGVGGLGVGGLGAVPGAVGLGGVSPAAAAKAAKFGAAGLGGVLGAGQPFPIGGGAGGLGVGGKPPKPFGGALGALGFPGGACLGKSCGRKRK

T2: collagen type III (human) (human, UniProt P02461 154-1221)
T2 construct: III (human)'; Coated and dried on plates at 10 ug/cm2; also called collagen III
T2 sequence (looked up): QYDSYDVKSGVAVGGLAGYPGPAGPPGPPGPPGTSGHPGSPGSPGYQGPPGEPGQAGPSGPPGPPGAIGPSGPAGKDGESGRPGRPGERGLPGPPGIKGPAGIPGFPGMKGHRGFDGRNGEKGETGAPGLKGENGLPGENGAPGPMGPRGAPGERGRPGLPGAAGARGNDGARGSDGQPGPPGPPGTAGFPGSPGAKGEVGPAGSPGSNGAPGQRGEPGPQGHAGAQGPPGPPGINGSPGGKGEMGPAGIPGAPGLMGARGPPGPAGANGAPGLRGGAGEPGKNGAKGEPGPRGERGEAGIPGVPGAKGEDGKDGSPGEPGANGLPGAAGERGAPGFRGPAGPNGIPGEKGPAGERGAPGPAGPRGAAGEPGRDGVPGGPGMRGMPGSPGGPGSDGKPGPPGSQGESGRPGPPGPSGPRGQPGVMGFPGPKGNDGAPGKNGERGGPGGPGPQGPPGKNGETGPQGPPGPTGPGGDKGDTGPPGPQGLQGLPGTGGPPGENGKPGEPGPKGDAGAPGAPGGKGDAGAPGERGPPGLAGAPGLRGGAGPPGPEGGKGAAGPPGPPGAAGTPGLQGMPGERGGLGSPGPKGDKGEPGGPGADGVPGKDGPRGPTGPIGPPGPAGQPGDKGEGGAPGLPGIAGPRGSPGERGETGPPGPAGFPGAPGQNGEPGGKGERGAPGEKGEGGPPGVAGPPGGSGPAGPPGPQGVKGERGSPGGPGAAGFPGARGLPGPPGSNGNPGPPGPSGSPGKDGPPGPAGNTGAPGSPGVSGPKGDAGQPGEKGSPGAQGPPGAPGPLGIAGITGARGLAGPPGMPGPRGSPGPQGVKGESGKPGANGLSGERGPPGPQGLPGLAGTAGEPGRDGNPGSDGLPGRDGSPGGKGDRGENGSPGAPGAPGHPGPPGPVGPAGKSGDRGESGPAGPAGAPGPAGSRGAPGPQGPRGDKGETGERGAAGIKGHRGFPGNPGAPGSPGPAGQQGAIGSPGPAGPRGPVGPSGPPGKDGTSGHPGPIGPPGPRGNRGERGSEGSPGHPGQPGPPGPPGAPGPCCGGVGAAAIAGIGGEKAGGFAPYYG

T3: elastin (bovine) (bovine, UniProt P04985 27-747, limits assumed)
T3 construct: Coated and dried on plates at 10 ug/cm2
T3 sequence (looked up): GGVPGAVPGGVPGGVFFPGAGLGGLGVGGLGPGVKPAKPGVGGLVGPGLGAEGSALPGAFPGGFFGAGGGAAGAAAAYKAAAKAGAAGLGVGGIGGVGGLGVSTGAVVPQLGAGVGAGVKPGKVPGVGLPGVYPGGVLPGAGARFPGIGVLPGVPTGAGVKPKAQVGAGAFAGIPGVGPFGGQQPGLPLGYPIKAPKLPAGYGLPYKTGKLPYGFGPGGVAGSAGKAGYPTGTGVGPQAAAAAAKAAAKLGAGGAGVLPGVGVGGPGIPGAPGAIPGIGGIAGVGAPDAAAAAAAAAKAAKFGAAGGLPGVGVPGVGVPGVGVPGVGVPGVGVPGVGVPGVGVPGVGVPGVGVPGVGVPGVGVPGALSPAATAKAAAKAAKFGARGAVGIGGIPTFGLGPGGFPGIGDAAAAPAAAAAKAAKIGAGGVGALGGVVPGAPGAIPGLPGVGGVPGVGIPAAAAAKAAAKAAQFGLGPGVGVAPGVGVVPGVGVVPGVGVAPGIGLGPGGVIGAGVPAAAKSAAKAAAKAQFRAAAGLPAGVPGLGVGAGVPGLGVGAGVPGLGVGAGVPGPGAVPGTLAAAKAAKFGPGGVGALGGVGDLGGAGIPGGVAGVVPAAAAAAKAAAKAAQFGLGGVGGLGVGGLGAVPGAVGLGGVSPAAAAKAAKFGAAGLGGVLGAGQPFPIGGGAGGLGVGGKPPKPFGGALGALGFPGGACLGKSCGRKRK


Columns and labels:
[1] = ECM specificity binding test, hyaluronic acid coating; conditions: 5.0 mg/ml peptide, FIG. 4
Method: (§1) Peptides were incubated 24 hours at 37° C. on collagens I-IV, elastin, hyaluronic acid, and Geltrex. Coatings (10 pig/cm^2) were previously dried overnight in milli-Q water. Overall significance was assessed using analysis of variance, with Tukey's multiple comparison post-hoc analysis between ECM groups where n=4.
(§2) Hyaluronic acid, collagens I, II, III, and IV, elastin, and Geltrex were coated onto 96-well black plates (medium binding affinity) at 10 μg/cm^2 and were dried in milli-Q water at room temperature. N-termini biotinylated peptides were added to coated plates at 0, 1, 2.5, 5 and 10 mg/ml overnight at 37° C. in phosphate buffered saline (PBS), pH 7.4, after which the plates were washed three times with PBS. Fluorescent streptavidin-488 (4 μg/mL) was added to each well and incubated at 37° C. temperature for 24 hours, then thoroughly washed with PBS. The plates were read with a fluorescence microplate reader for fluorescence intensity (Ex 490 nm, Em 525 nm). All data were normalized to the background fluorescence intensity of Streptavidin-488.

[2] = Circular dichroism (CD) of peptides; format: physicochemical; conditions: 20 mM Sodium Cacodylate; for wavelength Minimum of CD profile: 5.0 mg/mL
[3] = target: T1, elastin; assay: ECM specificity binding test, elastin coating; set-up: species or system bovine; conditions: 5.0 mg/ml peptide, FIG. 4
Method: as §1
(§3) Biotinylated peptides were custom synthesized by ABI Scientific, Inc. (Sterling, VA). Uranyl acetate and TEM grids were from Ted Pella, Inc (Redding, CA). Unless specified otherwise, all water used in these experiments was Milli-Q grade. HA (˜1 MDa), collagen types I (rat), II (chicken), III (human), and IV (mouse), elastin (bovine), deuterium oxide (D2O), acetic acid-d4, sodium acetate-d3, 3-(Trimethylsilyl)propionic-2,2,3,3-d6 (DSS-D6) acid sodium salt, and 2,2,2-trifluoroethanol (TFE) and were obtained from Sigma-Aldrich (St. Louis, MO). Streptavidin (Alexa Fluor 488 conjugate) and Geltrex were obtained from Thermo Fisher Scientific Inc. (Waltham, MA). Sodium hyaluronate (5 and 60 KDa) was purchased from Lifecore Biomedical LLC (Chaska, MN). In reference to terminology, N and C termini is used to describe the amino terminal (N) and the carboxyl terminal (C) of the peptide. The biotinylated peptides are used in every experiment.
as §2

[4] = Transmission electron microscopy (TEM) of peptide nanostructures; format: physicochemical
Method: The sample and stain were filter-dried in between steps. Samples were collected 24 hours at 37° C. after 30 minutes of sonication. All TEM was performed on a Philips FEI Technai Spirit G2 electron microscope. Peptides were incubated in both PBS and SC.

[5] = tested on: extracellular matrix (ECM) components: Collagen type I, II, III and IV, elastin, hyaluronic acid and Geltrex; assay: ECM specificity binding test, whole panel; conditions: 5.0 mg/ml peptide, FIG. 4
[6] = target: T4, collagen type IV (Mus musculus, UniProt P02463+P08122); assay: ECM specificity binding test, collagen type IV coating; conditions: 5.0 mg/ml peptide, FIG. 4
T4 construct: purchased Sigma-Aldrich
T4 sequence (P02463 173-1669): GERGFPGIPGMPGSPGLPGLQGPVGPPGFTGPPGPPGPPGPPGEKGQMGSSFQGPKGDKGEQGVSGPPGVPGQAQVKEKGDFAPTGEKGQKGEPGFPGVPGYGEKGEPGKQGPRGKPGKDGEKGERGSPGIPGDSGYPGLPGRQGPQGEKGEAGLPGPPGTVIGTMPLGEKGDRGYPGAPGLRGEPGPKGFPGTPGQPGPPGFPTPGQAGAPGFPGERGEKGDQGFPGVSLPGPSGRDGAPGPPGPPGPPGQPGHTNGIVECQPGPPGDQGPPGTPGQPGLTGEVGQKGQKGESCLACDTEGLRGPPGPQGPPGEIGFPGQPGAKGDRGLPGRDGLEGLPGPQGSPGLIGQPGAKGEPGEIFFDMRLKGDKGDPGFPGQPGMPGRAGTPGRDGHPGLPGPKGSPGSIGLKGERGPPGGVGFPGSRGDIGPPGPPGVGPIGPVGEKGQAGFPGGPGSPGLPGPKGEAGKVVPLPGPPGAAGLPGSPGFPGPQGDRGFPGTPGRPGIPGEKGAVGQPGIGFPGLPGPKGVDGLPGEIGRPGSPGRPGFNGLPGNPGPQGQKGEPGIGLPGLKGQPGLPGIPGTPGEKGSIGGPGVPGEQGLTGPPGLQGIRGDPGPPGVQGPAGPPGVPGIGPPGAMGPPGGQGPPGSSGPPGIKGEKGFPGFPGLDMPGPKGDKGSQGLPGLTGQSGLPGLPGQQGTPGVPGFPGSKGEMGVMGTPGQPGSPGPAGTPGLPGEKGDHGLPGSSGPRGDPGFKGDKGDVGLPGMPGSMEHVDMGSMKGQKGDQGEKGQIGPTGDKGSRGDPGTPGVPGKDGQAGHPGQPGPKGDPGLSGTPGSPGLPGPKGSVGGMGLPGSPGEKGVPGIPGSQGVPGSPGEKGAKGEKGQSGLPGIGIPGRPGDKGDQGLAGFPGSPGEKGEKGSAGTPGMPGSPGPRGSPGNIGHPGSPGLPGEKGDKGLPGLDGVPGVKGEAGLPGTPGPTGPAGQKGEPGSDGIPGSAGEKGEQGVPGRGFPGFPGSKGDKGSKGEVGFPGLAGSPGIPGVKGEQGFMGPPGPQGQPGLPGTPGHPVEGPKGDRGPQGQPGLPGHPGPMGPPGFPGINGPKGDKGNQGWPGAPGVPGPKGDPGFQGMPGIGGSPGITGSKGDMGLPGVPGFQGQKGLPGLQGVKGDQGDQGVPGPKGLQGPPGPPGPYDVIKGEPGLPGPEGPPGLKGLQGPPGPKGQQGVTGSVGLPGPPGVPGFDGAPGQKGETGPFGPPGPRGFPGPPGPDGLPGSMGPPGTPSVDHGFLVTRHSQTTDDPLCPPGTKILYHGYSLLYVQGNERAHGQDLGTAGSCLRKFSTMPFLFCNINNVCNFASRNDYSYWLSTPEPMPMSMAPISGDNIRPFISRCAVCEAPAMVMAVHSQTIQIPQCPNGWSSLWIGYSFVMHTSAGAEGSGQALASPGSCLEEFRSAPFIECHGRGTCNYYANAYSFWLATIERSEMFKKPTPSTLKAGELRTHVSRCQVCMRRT
T4 sequence (P08122 29-1707 limits assumed): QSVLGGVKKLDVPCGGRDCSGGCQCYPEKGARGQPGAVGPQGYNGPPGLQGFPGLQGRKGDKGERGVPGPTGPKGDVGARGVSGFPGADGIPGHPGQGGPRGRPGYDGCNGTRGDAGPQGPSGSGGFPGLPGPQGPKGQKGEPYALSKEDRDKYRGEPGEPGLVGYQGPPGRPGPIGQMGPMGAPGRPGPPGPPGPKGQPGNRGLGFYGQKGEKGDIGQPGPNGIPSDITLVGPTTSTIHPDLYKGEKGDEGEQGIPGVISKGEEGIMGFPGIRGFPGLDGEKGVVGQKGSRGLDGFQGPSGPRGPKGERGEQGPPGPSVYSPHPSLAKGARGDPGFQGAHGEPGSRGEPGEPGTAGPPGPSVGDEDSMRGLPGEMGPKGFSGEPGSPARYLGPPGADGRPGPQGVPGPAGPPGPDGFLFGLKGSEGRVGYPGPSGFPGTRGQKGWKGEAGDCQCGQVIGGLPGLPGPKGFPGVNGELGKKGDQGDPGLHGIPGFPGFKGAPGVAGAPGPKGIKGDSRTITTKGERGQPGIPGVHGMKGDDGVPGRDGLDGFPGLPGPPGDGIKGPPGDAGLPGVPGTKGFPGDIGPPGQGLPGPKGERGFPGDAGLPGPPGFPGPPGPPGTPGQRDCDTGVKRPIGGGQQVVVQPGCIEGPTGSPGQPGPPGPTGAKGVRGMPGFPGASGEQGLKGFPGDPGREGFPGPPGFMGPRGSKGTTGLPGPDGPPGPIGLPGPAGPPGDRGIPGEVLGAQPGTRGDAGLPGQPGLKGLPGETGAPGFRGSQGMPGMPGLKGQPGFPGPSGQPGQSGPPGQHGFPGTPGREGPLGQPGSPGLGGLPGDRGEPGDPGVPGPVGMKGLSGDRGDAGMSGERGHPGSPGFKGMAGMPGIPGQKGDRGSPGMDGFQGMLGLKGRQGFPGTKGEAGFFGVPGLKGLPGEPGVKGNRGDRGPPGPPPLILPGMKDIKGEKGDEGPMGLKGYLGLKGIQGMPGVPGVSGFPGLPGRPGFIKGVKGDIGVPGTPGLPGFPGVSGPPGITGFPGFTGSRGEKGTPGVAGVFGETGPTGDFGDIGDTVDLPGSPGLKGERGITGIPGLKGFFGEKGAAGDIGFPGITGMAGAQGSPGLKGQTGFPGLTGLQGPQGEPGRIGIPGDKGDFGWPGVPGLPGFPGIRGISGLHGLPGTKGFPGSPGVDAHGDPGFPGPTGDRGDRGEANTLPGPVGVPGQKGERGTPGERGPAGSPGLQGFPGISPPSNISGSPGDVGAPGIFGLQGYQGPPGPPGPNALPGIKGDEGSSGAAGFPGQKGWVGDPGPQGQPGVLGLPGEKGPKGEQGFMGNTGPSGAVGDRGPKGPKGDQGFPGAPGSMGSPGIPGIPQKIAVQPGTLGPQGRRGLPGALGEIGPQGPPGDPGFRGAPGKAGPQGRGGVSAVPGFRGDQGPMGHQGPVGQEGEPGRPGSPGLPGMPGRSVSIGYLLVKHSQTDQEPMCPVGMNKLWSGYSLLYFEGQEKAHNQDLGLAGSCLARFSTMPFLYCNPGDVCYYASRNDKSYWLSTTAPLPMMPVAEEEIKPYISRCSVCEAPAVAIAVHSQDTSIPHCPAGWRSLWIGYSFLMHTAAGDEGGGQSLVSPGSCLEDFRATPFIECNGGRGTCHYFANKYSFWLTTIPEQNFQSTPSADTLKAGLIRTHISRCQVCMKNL
Method: as §1
as §3, with “Sodium hyaluronate (5 and 60 KDa) was purchased from Lifecore Biomedical LLC (Chaska, MN). In reference to terminology, N and C termini is used to describe the amino terminal (N) and the carboxyl terminal (C) of the peptide. The biotinylated peptides are used in every experiment.” left out
(§4) Hyaluronic acid, collagens I, II, III, and IV, elastin, and Geltrex were coated onto 96-well black plates (medium binding affinity) at 10 μg/cm^2 and were dried in milli-Q water at room temperature. […] The plates were read with a fluorescence microplate reader for fluorescence intensity (Ex 490 nm, Em 525 nm). All data were normalized to the background fluorescence intensity of Streptavidin-488.

[7] = target: T5, collagen type II (Gallus gallus, UniProt P02460); assay: ECM specificity binding test, collagen type II coating; set-up: species or system chicken; conditions: 5.0 mg/ml peptide, FIG. 4
T5 construct: purchased Sigma-Aldrich
T5 sequence (P02460 whole entry): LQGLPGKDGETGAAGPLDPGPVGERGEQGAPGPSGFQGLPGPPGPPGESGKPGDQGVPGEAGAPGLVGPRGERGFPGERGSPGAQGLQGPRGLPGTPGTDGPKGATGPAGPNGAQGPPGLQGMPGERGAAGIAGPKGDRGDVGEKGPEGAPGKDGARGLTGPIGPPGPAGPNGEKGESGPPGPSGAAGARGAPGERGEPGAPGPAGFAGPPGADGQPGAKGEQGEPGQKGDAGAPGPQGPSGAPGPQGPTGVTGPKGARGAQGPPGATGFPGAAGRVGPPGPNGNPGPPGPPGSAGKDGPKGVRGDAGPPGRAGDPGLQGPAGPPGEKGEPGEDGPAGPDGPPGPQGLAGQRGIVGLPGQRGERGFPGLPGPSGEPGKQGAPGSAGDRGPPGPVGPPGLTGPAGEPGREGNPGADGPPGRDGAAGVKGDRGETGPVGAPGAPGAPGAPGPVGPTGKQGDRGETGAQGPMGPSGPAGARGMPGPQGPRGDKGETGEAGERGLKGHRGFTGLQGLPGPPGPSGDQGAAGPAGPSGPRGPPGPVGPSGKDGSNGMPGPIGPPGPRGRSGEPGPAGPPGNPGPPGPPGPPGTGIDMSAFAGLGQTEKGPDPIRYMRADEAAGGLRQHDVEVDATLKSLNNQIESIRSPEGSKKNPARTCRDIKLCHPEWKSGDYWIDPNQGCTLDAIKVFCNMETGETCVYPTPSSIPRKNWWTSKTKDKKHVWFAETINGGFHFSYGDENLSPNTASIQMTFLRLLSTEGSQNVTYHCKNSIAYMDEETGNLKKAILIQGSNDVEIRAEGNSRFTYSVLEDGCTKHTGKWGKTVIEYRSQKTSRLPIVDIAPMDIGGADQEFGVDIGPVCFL
Method: as §1
as §3, with “Sodium hyaluronate (5 and 60 KDa) was purchased from Lifecore Biomedical LLC (Chaska, MN). In reference to terminology, N and C termini is used to describe the amino terminal (N) and the carboxyl terminal (C) of the peptide. The biotinylated peptides are used in every experiment.” left out
as §4

[8] = tested on: Geltrex; assay: ECM specificity binding test, Geltrex coating; conditions: 5.0 mg/ml peptide, FIG. 4
Method: as §1
as §3, with “Sodium hyaluronate (5 and 60 KDa) was purchased from Lifecore Biomedical LLC (Chaska, MN). In reference to terminology, N and C termini is used to describe the amino terminal (N) and the carboxyl terminal (C) of the peptide. The biotinylated peptides are used in every experiment.” left out
as §4

[9] = Concentration-dependent peptide binding to hyaluronic acid coating (biotin-streptavidin fluorescence)
In short: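 N-terminally biotinylated peptides at 0, 1, 2.5, 5 and 10 mg/ml were incubated overnight at 37 °C in PBS, pH 7.4, on dried hyaluronic acid coatings (10 μg/cm^2), then washed three times in PBS. Groups compared with scrambled control by ANOVA with Tukey post-hoc, n=4.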

[10] = target: T2, collagen type III (human); assay: plate assay: biotinylated peptide (5.0 mg/ml) on dried ECM coating, streptavidin-488 fluorescence
Method: as §1, with “pig/cm²)” for “pig/cm^2)”
as §2, with “N-termini” for “Hyaluronic acid, collagens I, II, III, and IV, elastin, and Geltrex were coated onto 96-well black plates (medium binding affinity) at 10 μg/cm^2 and were dried in milli-Q water at room temperature. N-termini”

[11] = target: T3, elastin (bovine); assay: as above
Method: as §1, with “pig/cm²)” for “pig/cm^2)”
as §2, with “N-termini” for “Hyaluronic acid, collagens I, II, III, and IV, elastin, and Geltrex were coated onto 96-well black plates (medium binding affinity) at 10 μg/cm^2 and were dried in milli-Q water at room temperature. N-termini”

[12] = 1.25 mg/mL, CD data given as [θ]M×10^−3

Row | binding to hyaluronic acid in specificity testing [1] | binding to elastin [3] | specificity of binding to ECMs [5] | binding to collagen type IV [6] | binding to collagen type II [7] | binding to Geltrex [8] | binding to hyaluronic acid with increasing concentrations of peptide (fluorescence intensity) ([9]; 0-10 mg/ml peptide, PBS pH 7.4, 37° C., HA coating 10 μg/cm^2, FIG. 3) | binding result [10] | binding result [11] | Molecule | Ellipticity ratio (222 nm/208 nm) ([2]; 1.25 mg/mL) | Ellipticity 208 nm [2, 12] | Ellipticity 222 nm [2, 12] | wavelength Minimum of CD profile [2] [nm] | wavelength Minimum of CD profile ([2]; 20% TFE) [nm] | TEM characterization, Phosphate Buffered Saline (i) ([4]; PBS pH 7.4, 0.5% w/v, 30 minutes sonication, 24 hrs at 37° C.) | nanofiber formation in TEM, overall ([4]; both PBS and sodium cacodylate) | HA binding, overall assessment ([9]; summary and discussion statements)
1 | binds | moderately | lowest specificity | moderately | moderately | moderately | increases dramatically | – | – | TNLRNKYTFLARARANLAVRNKQNIKS [BHP4, variant of BHP3] | 0.81 | −107 | −86.6 | 226 | 225 | form fibers with many striations that form larger fibers and the larger fibers tend to form a mesh network | consistent nanofibers; also recorded: predominantly form fibers with striations and furthermore form a mesh network | comparable binding; also recorded: HA specific and robust binders
2 | – | – | – | – | – | – | – | binds | binds | Biotin-TKAKIKHSVKLKAKLRIKLVKRI-OH (SMILES CC[C@H](C)[C@H](NC(=O)[C@H](CCCNC(=N)N)NC(=O)[C@H](CCCCN)NC(=O)[C@@H](NC(=O)[C@H](CC(C)C)NC(=O)[C@H](CCCCN)NC(=O)[C@@H](NC(=O)[C@H](CCCNC(=N)N)NC(=O)[C@H](CC(C)C)NC(=O)[C@H](CCCCN)NC(=O)[C@H](C)NC(=O)[C@H](CCCCN)NC(=O)[C@H](CC(C)C)NC(=O)[C@H](CCCCN)NC(=O)[C@@H](NC(=O)[C@H](CO)NC(=O)[C@H](Cc1c[nH]cn1)NC(=O)[C@H](CCCCN)NC(=O)[C@@H](NC(=O)[C@H](CCCCN)NC(=O)[C@H](C)NC(=O)[C@H](CCCCN)NC(=O)[C@@H](NC(=O)CCCC[C@@H]1SC[C@@H]2NC(=O)N[C@@H]21)[C@@H](C)O)[C@@H](C)CC)C(C)C)[C@@H](C)CC)C(C)C)C(=O)O, 23-residue designed peptide; biotinylated synthetic peptide) [Peptide 10K] | – | – | – | – | – | – | – | –

From patent US20250026792A1, “SELF-ASSEMBLING PEPTIDES WITH HYALURONIC ACID BINDING DOMAINS AND METHODS OF USE THEREOF” (Northwestern University, priority 2022, published 2025)
